# Source: the nanobody polyreactivity screen of Harvey et al. (2022)
# Assay: yeast display, Sf9 membrane polyspecificity reagent, FACS + sequencing; frameworks hold sequencing errors
# How it was run: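 Galactose induction of a Saccharomyces cerevisiae BJ5465 synthetic nanobody display library ran 36–48 hours. The cells were then stained for 1 hour at 4 °C with 10% biotinylated, detergent-solubilized Sf9 membrane reagent, pulled down on streptavidin microbeads and FACS-sorted into low and high (top ~1%) gates on expression and reagent-binding fluorescence. Labels for polyreactivity follow the gate of origin.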
row,Sequence,polyreactivity (PSR sort gate)
1,QVQLVESGGGLVQAGGSLRLSCAASGRTLIGNAMGWYRQAPGKEREFVAAITRSGGDTYYADSVKGRFTISRDNAKNTVYLQMNSLKPEDTAVYYCAADGQLHMDYWGQGTQVTVSS,high polyreactivity
2,QVQLVESGGGLVQAGGSLRLSCAASGFIFGYYAMGWYRHAPGKERELVAAISYSGGSTYYADSVKGRFTISRDNAKNTVYLQMYSLKPEDTAVYYCAKYGQSNYDWGQGTQVTLSS,high polyreactivity
3,QVQLVESGGGLVQAGGSLRLSCAASGSIFWYYAMGWYRQAPGKERELVAAISSGGSTNYADSVKGRFTISRDNAKNTVYLQMNSLKPEDTAVYYCAAGYAVSWYSAYDSGYWGQCTQVTVSS,low polyreactivity
4,QVQLVESGGGLVQAGGSLRLSCAASGRTFHPYAMGWYRQAPGKERELVAVITTSGSSTYYADSVKGRFTISRDNAKNTVYLQMNSLKPEDTAVYYCAALYWRHQAARYYYWGQGTQVTVSS,high polyreactivity
5,QVQLVESGGGLVQAGGSLRLSCAASGITFFRNAMGWYRQAPGKERELVAGISTTGGRTYYADSVKGRFTISRDKAKNTVYLQMNSLKPEDTAVYYCNTLVPRAGREYDYWGQGTQVTVSS,high polyreactivity
6,QVQHVESGGGLVQAGGSLLLSSAASGRTFLVNAMGWNRQAPGKEREFVAAITSRSGRTNYADSVKGRFTISRDTAKNNVYLQMNSLKPEDTAVYYCNAEGYTVKYWYSRYDYWGQGTQVTVSS,high polyreactivity
7,QVQHVESGGGLVQAGGSLRLSCAASGRTFSRYAMGWYRQAPGKERELVAAISSRGGSTYYADSVKGRFTISRDYAKNTVYLQMNSLKPEDTAVYYCNADSKVDQYGYDYWGQGTQVTVSS,high polyreactivity
8,QVQLVESGGGLVQAGGSLRLSCAASGITFNSYAMGWYRQAPGKERELVASITERGDSTYYADSVKGRFTLSRDNAKNTVYLQMNSLKPEDTGVYYCAAAEHLTRPSSPTQDGDHWGQGTQVTVSS,low polyreactivity
9,QVQLVESGGGLVQAGGSLRLSCAASGNIFVRYAMGWYRQAPGKEREFVAAISSSGGSTRYADSVKGRFTISRDNAKNTVYLQMNSLKPEDTAVYYCAATRVARHGSPMYYWGQGTQVTVSS,high polyreactivity
10,QFQLVESGGGLVQAGGSLRLSGAASGRTFRIYAMGWYRQAPGKDRELVAAITRSSGSTYYADSVKGRFTISRDNAKNTVYLQMNSLKPEDTAVYYCAAEALFEPIYDYWGQGTQVTVSS,high polyreactivity
11,QVQLVESGGGLVQAGGSLRLSCAASGFIFGNNDRGWYRQAPGKERELVAGITWSGSSTYYADSVKGRFTISRDNAKNTVYLQMNSLKPEDTAVYYCIRVFTWRYGYRYEYWGQGTQVTVSS,high polyreactivity
12,QVQLVESGGGLVQAGGSLRLSCAASGSIFPWYAMGWYRQAPGKERELVAAITISGGSTHYADTVKGRFTISRDNAKYTVYLQMNSLKPEDTAVYYCATPRYPSYDYWGQGTQVTVSS,low polyreactivity
13,QVQLVESGGGLVQAGGSLRLSCAASGITFSVYAMGWYRQAPRKERELVASISSGGTSTYYADSVKGRFTISRDNAKNTVYLQMNSLKPEDTPVYYCAAYSYYTRDPYSYDYWGQGTQVTVSS,low polyreactivity
14,QVQLVESGGGLVQAGGSLRLRCAASGLTFGVYPMGWYRQAPGKERELVAAISSSGGSTYYADSVKGRYTISRDYAKNTVYLHMNSLKPEDTAVYYCNAGRGTKYDYWGQGTQVTVSS,low polyreactivity
15,QVQLQESGGGLVQAGGSLRLSCAASGSIFDYVSMGWYRQAPGEERELVVTITLGSNTYYADSVKGRFTISSDIAKNSVYLQMNSLNPEDTAVYYCAASALWGYVYPYWGLGTQVTVSS,high polyreactivity
16,QVQLVESGGGLVQAGGSLLLSCAPSGITFVWYAMVWYRQAPGKERELVAAISRGGSTYYADSVKGRFTISRDNAKNTVYLQMNSLKPVDTAVYYCAARAPYIQQSVHISPRYYYSGQGTQVTVSS,high polyreactivity
17,QVQLVESGGGLVQAGGSLRLSCAASGFIFRYYAMGWYRQAPGKERELVAAISGNGGNTYYADSVKGRFTISRDNAKNTVYLQMNSLKPEDTAVYYCNRAPGYRGGRYDYWGQGTQVTVSS,high polyreactivity
18,QVQLVESGGGLVQAGGSLRLSCAASGSTFDRYDMVWYRQAPGKETELVAAITRRGGSTYYADSVKGRFTFSRDNAKNTVYLQMNSLQPEDTAVYYCNAKHFAYSVAHPYLRYGYDYWGQGTHVTVSS,low polyreactivity
19,QVQLVESGGGLVQAGGSLRLSCAASGRIFYKYVRGCYRQAPGKDRELVATITSGGSTYYADSVKGRFTISRDNAKNTVYLQMNSLNPEDTAVYYCAARKYYSRAYDYWGQGTQVTVSS,high polyreactivity
20,QVQLVESVGGLVQAGGSLRLSCAASGSIFVKYAMGWYRQAPGKECEMVPAISGSGGSTYYADSVKGRFTISRDNAKNTVYLQMNSLKQEDTAVYYCAADDYFYAGTLPGWWYDYWGQGTQVTVSS,low polyreactivity
21,QVQLVESGGGLVQAGGSLRLSCAASGRIFGDYAMGWYRQAPGKERELVAAISWSDGSTYYADSVKGRFTISRDNAKNTVYLQMNSLKPEDTAVYYCAAYGWGYRYVDVVVSDFYYWGQGTQVTVSS,low polyreactivity
22,QVQLVESGGGLVQAGGSLRLSCAASGFTFDSYAMGWYRPAPGKERELVAAITSDGSTYYADSVKGRFTISRDNAKNTVYLQMNSLKPEDTAVYYCAARSTARYGYWGQGTQVTVSS,low polyreactivity

row,Sequence,polyreactivity (PSR sort gate)
1,QVQRVESGGGLVQAGGSLRLSCAASGRILYWYAMGWYRQAPGKERELVAGIDWSGGSTYYADSVKGRFTISRDKAKTTVYLQMNSLKPEDTAVYYCNAAQNRGRGSHRGESTYYYSGQGTQVTVSS,low polyreactivity
2,QVQLVESGGGLVQAGGSLRLSCAASGFTFHYYTMGWYRQAPGKDRELVATIRWSAGSTYYADSVKGRFTISRDNAKNTVYLQMNSLKPEDTAVYYCAVRSLRVDKYGYWGQGTQVTVSS,high polyreactivity
3,QVQLVESGGGLVQAGGSLRLSCAASGSIFYSNMGWYRPAPGKEREFVAAISGSGVRTYYADSVKGRFTISRDNAKKTVYLQMNSLKPEDTAVYYCNAGRRQDNRYNYWGQGTQVTVSS,high polyreactivity
4,QVQLVESGGGLVQAGGSLRLSCAASGFTFARYALGWYRQAPGKERELVAGITYRGGRTYYADSVKGRFTISRDNEKNTVYLQMNRLKPEDTAVYYCARYGPIKYYSWGQGTQVTVSS,high polyreactivity
5,QVQLVESGGGLDQAGGSLRLSCAASGRTYYRYAMGWYRQAPGKESELVAAITWSGGSSYYADSVKGRFTTSRDNAKNTVYLQRNTLKPEDTAVYYCARRLYPYRPTAYDSWGQGTQVTVAS,low polyreactivity
6,QVQLVESGGGLVQAGGSLRLSCAASGLTFVAYGMGWYRQAPGKERELVATIRWRGGSTYYADSVKGRFTISRDNAKNTVYLQMNSLKPEDTAVYYCAATRARRWSSPGQYGYWGQGTQVTVSS,high polyreactivity
7,QVQLQESGGGLVQAGGSLRLSCAASGHISIKLQRGWYRAAPGKERELVATINLGAITYYADSVKGLITNSRDNAKNTVYLQLNSLKPEDTAVYYCAARWRSGFTSGDYWGQGTQVTVSS,low polyreactivity
8,QVQLVESGGGLVQAGGSLRLSCAASGRIFTSNAMAWYRQAPGKERELVAAISASGGRTYYADSVKGRFTISRDNAKNTVYLQMNSLKPEDTAVYYCAALSTGRLSDHGYWGQGTQVTVSS,high polyreactivity
9,QVQIVESGGGLVQAGGSLRLSCAASGRTYYYAMGWYRQAPGKERELVAAITESGDNTYYADSVKGRFTISRDNAKNTVYLQMNSLKPEDTAVYYCAVDYPSPSYYYEYYYWGQGTQVTVSS,high polyreactivity
10,QVQLVESGGGLVQAGGSLRLSCAASGSIFWLYAMGWYRQAPGKERELVATISSTGSTDYADSVKGRFTISRDNAKNTVYLQMNSLKPEDTAVYYCATDVFYSIFTPSPFEYDYWGQGTQVTVSS,high polyreactivity
11,QVQLVQSGGGLVQAGGSLRLSCAASGRIFRYYGMGWYRQAPGKERELVAAISWNSGSTYYADSVKGRFTISRDNAKNTVYLQMNSLKPEDTAVYYCNKVLFISGYVRNYGEYEYWGQGTQVTVSS,high polyreactivity
12,QVQLVESGGGLVQAGGSLRLSCAASGSIFAVYAMGRYRPAPGKERELVAASSTDYADSVKGRVTISRDNAKNTVYLQMNSLKPEDTAVYYCAKVGFGIPGGFYYWGHGTQVTVSS,low polyreactivity
13,QVQLVESGGGLVQAGGSLRLSCAASGLTFYSYAMGWSRQAPGKERELVAAITSSGSITYYADSVKGRFTISRDNAKNTVYLQMNSLKPEDTAVYYCAARPYRVRGQRFEGNYWGQGTQVTVSS,high polyreactivity
14,QVQLVESGGGVDQAGGSLRLSCAASGLSLRVNVMGWYRPAPGKERELVAAISGGGRTYYADSVKGRFTISRDNAKNTVYLQMNSLKPEDTAVYYCATVRRRLSLTYDYWGQGTQVTVSS,high polyreactivity
15,QVQLVETGGGLVQAGGSLRLSCAASGRTFTGNAMGWYRQEPGKERELVADISSDGSTNYADSVKGRFTISRDNAKNTVYLQMNSLKPEDTAVYYCAADPFWTYYIDYDYWGQGTQVTVSS,low polyreactivity
16,QVQLVESVGGLVQAGGSLRLSCAASGGTFSFNAMGWYRQAPGKERELVAAITQTGDRTYYADSVKGRFTISRDNAKNTVYLQMNSLKPEDTAVYYCAADDIYYQGIYRGSEFDYRGQGTQVTVSS,low polyreactivity
17,QVQLVESGGGLVQAGASLRLSCAPSGLIFTYNARGWYRQAPGKERELVAAITYRVSSTYYADSVKGRFTISRDNAKNSVYLQMNSLKPEDTAVYYCAAPRLIRFVTYYSWGLGTQVTVSS,high polyreactivity
18,QVQLVESGGGLVQAGGSLSLSCAASGLIFYYYAMGWYRQAPGKERELVAAISGSGGSTYYADSVKGRFTISRDNAKNTVYLQMNSLKPEDTAVYYCAAESQYTYGYGYWGQGTQVTVSS,high polyreactivity
19,QVQLVESGVGLVQAGGSLRLSCAASGSIFATNDMGWYRQAPGKERELVASISSGGGSTYYADSVKGRFTISRDNAKNTVYFQMNSLKPEDTAVYYCAADRGDTYTTDYDYWGQGTQVTLSS,low polyreactivity
20,QVQLVESGGGLVQAGGSLLLSCAASGSIFYNYAMGWYRQAPGKERELVAAISQSGGSTRYADSVKGRFTISRDNAKNTVYLQMNSLKPEDTAVYYCAASRRKGQGSAGFGYWGQGTQVTVSS,high polyreactivity
21,QVQLVESGGGLVQAGGSLRLSCAASGSIFPQYAMGWYRQAPGKERELVAAITWSGSRTRYADSVKGRFTISRDNAKNTVYLQMNSLKPEDTAVYYCNAVNYRSSRDSGYWGQGTQVTVSS,high polyreactivity
